Laboratory results taken from US8809027B1, “Genetically modified organisms for increased microbial production of 3-hydroxypropionic acid involving an oxaloacetate alpha-decarboxylase” (OPX Biotechnologies, Inc., priority 2009, dated 2014).
Positions count from the first letter of the chain named. In names and notes the source's numbering stands.

B1: KGD: alpha-ketoglutarate decarboxylase (kgd) from Mycobacterium tuberculosis, penta-histidine tag, purified (protein, listed as Mycobacterium tuberculosis)
chain: MNLRGTAARRRHRATGDTLDARQLVRQQLRQLQTETRPGALVRWFLLDPKELFDIFVTIQGFTQTTTRQRRQLLQTHNCQIITVVFRLACRQFIIQLTGGQQNTANFIAVADTILVGRFLQDATEFNLGKILNLRNRRLVAQHGFRGKHDQRTLDAVQRVAAQQVKVIGRGARHRDRHATLSPQLQKALNARRRVVRALTLVAVWQQQNNVGQLTPFRFARADELVNDRLGTINKVAELRLPQHNRVWIANGITVLKTHSRVFRQRRIINQELTTGRAAVAVSRQQLQRGELLAGVTVDQHRMTLAKGATTRVLTAQTDQLALSNQAAQRQQLTKRPVNLTLIRHLTTLFQHRLNARVCRETVRQRQEGITDTCQQGFVNSGRQARWDHLVRLDALRRLDAVLLQFAHFVEHTLQLALVIAQRILRLFHADVATTDQSLGVGFTGATLGVHDVIDIRIGHRWIVTLIMTTTTIAQHVNNNVLFKALAEVNCQTRNPDTRFWIVAVHVEDWRTDHLRHIRAVLARTRVFRSGGEADLVVHNDVNRTTHTIARQICQIQRLRNNALTREGRITVQHQRNDGECTLAVGVNGTVVQQVLLRTHQTFQHWIDRFQMGRICRQGNLNIVIAKHLQIQTRRTQVVLDIAGTVSLGRVQIAFKLRKDLRIRFAHDVRQDIQATTVRHANDHFIQTMLGTLVNRRVHHWNNRFRTLQAKTLLAHILGLQEGFKRLRCVQFRQDVLLLSNGRFDVLRLDTLLQPLLLFRVQNVRVLNTDVTAVRVAQQTQHVTQLFVLSTRETVNLKDAVQVPQSQAMRQHLQIRMRTKARLIQAQRVGVRHQMAAVAIGRDQVHHTCVLVNDRVRIIGAPTHWQVRDAQLAEDLIPEAIRQQQFMNGTQEVTAFRTLNDTVVVGRSQGNQFANTQLSDAFLGRALELRRIFHRTDTDDSTLTWHQAWHRVHRANRARIRQRNRNASEVLGGQFTITSTTDDVLVRGNELREAHRLATFDTGHHQRALAIFTLQVNSQTQIGVRRSNRRRLTVHLRVVAIHIRELLNRLNQSITQQMGKADFTTTRAFQLIIDHDTIIDQQFRWHSTHRGRRRHFQRRAHVLHDSSRRTTQDSNFIAFGWRRHRGLGGQSRHDTVARCGRVGRFRRRLRSRRCRTLSDQRAGHTSRLSSRLGSRLRAIVHQKLMPAWVNGRRIITKFTIHTNTRRVLSHHGYISFLKNSISQRQGRHKIYSKCIINTDNIL
modifications: penta-histidine tag
notes: alpha-ketoglutarate decarboxylase (kgd) from Mycobacterium tuberculosis, penta-histidine tag, purified
B2: Mutant Oad 1: variant of Leuconostoc mesenteroides oad with mutations N45T, R249L, D302G, V418A and L476Q (protein)
chain: MTDTLTFNTKHLLEALFESGIRHFIVSPGSRSTPIALLLAEYAEQTNEIKLFVDVDERSAGFFALGIAKTLLEPVVLLGTSGTAIAEYMPAVAEAYAANIPLVVLSTDRPQELQFNGAPQTIPQSNLFGQLTKQAVLIRLQDMHSDVTEYIDFIVQKVVNLSITAPRGPIQINLPLRKPLMPVLDRQDEVHVQRVVFDKQSVQYRLPPITAKRLLILAGPNVLNSYDDSLKKFAIKNNVPVIADVLSQSLHTYTIHGIDVLLQAHKINADLKPDLVVRFGKTPVSARVLQWLKEENILTWHVGEDAGVDHTRHIVRAIKMAPHDFLESMHLTLSKNQIDFNQKWLSLPKVIKTRNEMNIITALDDAVPDDTHIFVANSMPIRDMDNFFTGNHTQRIYANRGANGIDGVISSALGMSAVAKQRSVLLTGDLTLFHDMNGLMMAKNYQLPLDIIVINNNGGGIFSFLPQAGAPKYFEQQFGTPLNIDIKKIADLYYIDYHQLNVPEALSQILQTPSKTTRLIEYKSDHQRNRDDHREVLEMLK
modifications: Leuconostoc mesenteroides
notes: variant of Leuconostoc mesenteroides oad with mutations N45T, R249L, D302G, V418A and L476Q
B3: Mutant Oad 3: variant of Leuconostoc mesenteroides oad with mutations R394C, D434G and T511A (protein)
chain: B2 chain with T46N, L250R, G303D, R395C, A419V, D435G, Q477L, T512A
modifications: Leuconostoc mesenteroides
notes: variant of Leuconostoc mesenteroides oad with mutations R394C, D434G and T511A
B4: Mutant Oad 2: variant of Leuconostoc mesenteroides oad with mutation T479N (protein)
chain: B2 chain with T46N, L250R, G303D, A419V, Q477L, T480N
modifications: Leuconostoc mesenteroides
notes: variant of Leuconostoc mesenteroides oad with mutation T479N

Experiments:
Assay type in all cases: biochemical
[1] = GC-MS analysis of 3-HP produced in the spectrophotometric assay samples
Experimental: A coupled assay was developed in order to biochemically assess the oxaloacetate alpha-decarboxylase activity of the candidate enzymes. The coupled assay used exogenously-added purified E. coli YdfG protein, which converts malonate semialdehyde to 3-HP with the concomitant conversion of NADPH to NADP^+ (FIG. 5). […] 3-HP is also detectable by standard analytical methods, for example HPLC and GS-MS. Assays were performed as 200 microliter reactions in a 96-well plate format using a Molecular Dynamics SpectraMax 384 microplate reader with SoftmaxPro software (Molecular Dynamics, Sunnyvale Calif.) to quantitate the rate of change in the 340 nm absorbance. […] The progress of each reaction was monitored for 20 minutes during which measurements were made every 20 seconds. […] Once the reaction time course was read and the slopes of each well were calculated, the specific activities over the negative control of each candidate protein were calculated. All values reported are the average specific activities measured in triplicate.
Activity of KGD was not measured by the spectrophotometric assay.
Conformation of 3-HP production as well as assessment of the pH dependence of each candidate enzyme was performed as described above, except that coupled reactions with YdfG were evaluated for 3-HP production by GC-MS. […]

[2] = GC-MS confirmation of 3-HP production and pH dependence of candidate enzymes (coupled reaction with YdfG); conditions: 3-HP by GC-MS at pH 5.5, pH 6.0 and pH 6.8; 5 mM oxaloacetate; 37° C., at least 12 hours
Experimental: Conformation of 3-HP production as well as assessment of the pH dependence of each candidate enzyme was performed as described above, except that coupled reactions with YdfG were evaluated for 3-HP production by GC-MS. Reaction conditions consisted of 50 mM PIPES pH 6.8, 2 mM thymidine pyrophosphate, 10 mM dithiothreitol, 4 mM magnesium chloride, 1 mM NADPH (EMD Bioscience), 0.075 mg/mL purified YdfG (Molecular Throughput), and 5 mM oxaloacetate (unless otherwise stated). All chemicals were obtained from Sigma-Aldrich unless otherwise stated. Reactions were performed at 0.6 mL volumes in triplicate and were initiated with the addition of 600 micrograms of purified protein. In addition, a negative control lacking protein was also performed with each set. Reactions were allowed to proceed at 37° C. for at least 12 hours. […] Soluble monomeric 3-HP is quantified using GC-MS after a single exaction with ethyl acetate from a reaction sample. […] A standard curve of known 3-HP concentrations is prepared at the beginning of the run and a known quantity of ketohexanoic acid (1 g/L) is added to both the standards and the samples to act as an internal standard for Quantitation, with tropic acid as an additional internal standard. […] 3-HP is quantified using a 3HP standard curve at the beginning of the run and the data are analyzed using HP Chemstation. […]

[3] = Coupled spectrophotometric assay of oxaloacetate alpha-decarboxylase activity (purified YdfG, NADPH absorbance at 340 nm); conditions: for Average Specific Activity: oad variants versus native Oad in the spectrophotometric assay; for Fold Increase in oxaloacetate alpha-decarboxylase specific activity: relative to native (parent) Oad lacking mutations, in vitro
Experimental: A coupled assay was developed in order to biochemically assess the oxaloacetate alpha-decarboxylase activity of the candidate enzymes. The coupled assay used exogenously-added purified E. coli YdfG protein, which converts malonate semialdehyde to 3-HP with the concomitant conversion of NADPH to NADP^+ (FIG. 5). […] 3-HP is also detectable by standard analytical methods, for example HPLC and GS-MS. Assays were performed as 200 microliter reactions in a 96-well plate format using a Molecular Dynamics SpectraMax 384 microplate reader with SoftmaxPro software (Molecular Dynamics, Sunnyvale Calif.) to quantitate the rate of change in the 340 nm absorbance. All assays were conducted at 37° C., and the instrument was allowed to mix the plate for 1 second prior to each measurements. The progress of each reaction was monitored for 20 minutes during which measurements were made every 20 seconds. Reaction conditions consisted of 50 mM PIPES pH 6.8 (unless otherwise stated), 2 mM thymidine pyrophosphate, 10 mM dithiothreitol, 4 mM magnesium chloride, 1 mM NADPH (EMD Bioscience), 0.075 mg/mL purified YdfG (Molecular Throughput), and 5 mM oxaloacetate (unless otherwise stated). All chemicals were obtained from Sigma-Aldrich (St. Louis, Mo.) unless otherwise stated. Reactions were initiated with the addition of 10 microliters of concentrated purified protein to each reaction well. In addition, a negative control was performed with each experimental set to control for the rate of background NADPH oxidation. Once the reaction time course was read and the slopes of each well were calculated, the specific activities over the negative control of each candidate protein were calculated. All values reported are the average specific activities measured in triplicate.

Row | Molecule | Final [3HP] ([1]; Beginning [OAA] 5 mM, pH 6.8) | 3-HP production confirmed by GC-MS ([1]; in the presence of 5 mM oxaloacetate) | pH of optimal activity [2] | Average Specific Activity [3] | Fold Increase in oxaloacetate alpha-decarboxylase specific activity [3]
1 | B1 | 0.004 ± 0.001 g/L | 3-HP was produced | 6.8 |  | 
2 | B2 |  |  |  | 0.0121 units/mg | 1.6 fold
3 | B3 |  |  |  | 0.0222 units/mg | 2.8 fold
4 | B4 |  |  |  | 0.0173 units/mg | 2.2 fold
